The values that follow come from paper PMC7407445, “Role of RadA and DNA Polymerases in Recombination-Associated DNA Synthesis in Hyperthermophilic Archaea”.

This data set has as its target RadA recombinase (Pyrococcus abyssi, UniProt Q9V233 1-353). The experiment in a line: EMSA; no ATP; 25 nM ssDNA, RadA 0-6.4 uM; 20 mM Tris-HCl pH 8.0, 50 ug/mL BSA, 2 mM DTT, 0.5% Triton, 65 C, 10 min; 0.75% native agarose gel. The following applies: protein: recombinant; tags: none (untagged); label: 5' HiLyte Fluor 647; single strand. For orientation: A gel shift assay detects complexes by their altered migration in electrophoresis.

RadA recombinase, sequence (Q9V233 whole entry): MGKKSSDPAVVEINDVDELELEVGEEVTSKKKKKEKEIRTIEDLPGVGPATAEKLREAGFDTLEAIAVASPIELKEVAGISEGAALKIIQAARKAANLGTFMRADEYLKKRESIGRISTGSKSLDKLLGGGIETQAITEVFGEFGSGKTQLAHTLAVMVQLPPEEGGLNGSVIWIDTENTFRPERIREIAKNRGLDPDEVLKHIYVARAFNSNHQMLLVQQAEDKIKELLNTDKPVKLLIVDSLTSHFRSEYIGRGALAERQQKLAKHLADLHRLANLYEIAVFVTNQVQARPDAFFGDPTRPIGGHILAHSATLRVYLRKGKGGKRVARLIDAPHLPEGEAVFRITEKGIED

B1: L93-5'HL 647 (93-mer ssDNA) (ssDNA)
DNA: AAAGGCGGTAATACGGTTATCCACAGAATCAGGGGATAACGCAGGAAAGAACATGTGAGCAAAAGGCCAGCAAAAGGCCAGGAACCGTAAAAA
On to B1, for which the binding result was “binds”.
